Experimental data from IntAct's records for PubMed 18275819.

Biological target: cac1c_human CACNA1C (UniProt Q13936)
Sequence (Q13936 whole entry): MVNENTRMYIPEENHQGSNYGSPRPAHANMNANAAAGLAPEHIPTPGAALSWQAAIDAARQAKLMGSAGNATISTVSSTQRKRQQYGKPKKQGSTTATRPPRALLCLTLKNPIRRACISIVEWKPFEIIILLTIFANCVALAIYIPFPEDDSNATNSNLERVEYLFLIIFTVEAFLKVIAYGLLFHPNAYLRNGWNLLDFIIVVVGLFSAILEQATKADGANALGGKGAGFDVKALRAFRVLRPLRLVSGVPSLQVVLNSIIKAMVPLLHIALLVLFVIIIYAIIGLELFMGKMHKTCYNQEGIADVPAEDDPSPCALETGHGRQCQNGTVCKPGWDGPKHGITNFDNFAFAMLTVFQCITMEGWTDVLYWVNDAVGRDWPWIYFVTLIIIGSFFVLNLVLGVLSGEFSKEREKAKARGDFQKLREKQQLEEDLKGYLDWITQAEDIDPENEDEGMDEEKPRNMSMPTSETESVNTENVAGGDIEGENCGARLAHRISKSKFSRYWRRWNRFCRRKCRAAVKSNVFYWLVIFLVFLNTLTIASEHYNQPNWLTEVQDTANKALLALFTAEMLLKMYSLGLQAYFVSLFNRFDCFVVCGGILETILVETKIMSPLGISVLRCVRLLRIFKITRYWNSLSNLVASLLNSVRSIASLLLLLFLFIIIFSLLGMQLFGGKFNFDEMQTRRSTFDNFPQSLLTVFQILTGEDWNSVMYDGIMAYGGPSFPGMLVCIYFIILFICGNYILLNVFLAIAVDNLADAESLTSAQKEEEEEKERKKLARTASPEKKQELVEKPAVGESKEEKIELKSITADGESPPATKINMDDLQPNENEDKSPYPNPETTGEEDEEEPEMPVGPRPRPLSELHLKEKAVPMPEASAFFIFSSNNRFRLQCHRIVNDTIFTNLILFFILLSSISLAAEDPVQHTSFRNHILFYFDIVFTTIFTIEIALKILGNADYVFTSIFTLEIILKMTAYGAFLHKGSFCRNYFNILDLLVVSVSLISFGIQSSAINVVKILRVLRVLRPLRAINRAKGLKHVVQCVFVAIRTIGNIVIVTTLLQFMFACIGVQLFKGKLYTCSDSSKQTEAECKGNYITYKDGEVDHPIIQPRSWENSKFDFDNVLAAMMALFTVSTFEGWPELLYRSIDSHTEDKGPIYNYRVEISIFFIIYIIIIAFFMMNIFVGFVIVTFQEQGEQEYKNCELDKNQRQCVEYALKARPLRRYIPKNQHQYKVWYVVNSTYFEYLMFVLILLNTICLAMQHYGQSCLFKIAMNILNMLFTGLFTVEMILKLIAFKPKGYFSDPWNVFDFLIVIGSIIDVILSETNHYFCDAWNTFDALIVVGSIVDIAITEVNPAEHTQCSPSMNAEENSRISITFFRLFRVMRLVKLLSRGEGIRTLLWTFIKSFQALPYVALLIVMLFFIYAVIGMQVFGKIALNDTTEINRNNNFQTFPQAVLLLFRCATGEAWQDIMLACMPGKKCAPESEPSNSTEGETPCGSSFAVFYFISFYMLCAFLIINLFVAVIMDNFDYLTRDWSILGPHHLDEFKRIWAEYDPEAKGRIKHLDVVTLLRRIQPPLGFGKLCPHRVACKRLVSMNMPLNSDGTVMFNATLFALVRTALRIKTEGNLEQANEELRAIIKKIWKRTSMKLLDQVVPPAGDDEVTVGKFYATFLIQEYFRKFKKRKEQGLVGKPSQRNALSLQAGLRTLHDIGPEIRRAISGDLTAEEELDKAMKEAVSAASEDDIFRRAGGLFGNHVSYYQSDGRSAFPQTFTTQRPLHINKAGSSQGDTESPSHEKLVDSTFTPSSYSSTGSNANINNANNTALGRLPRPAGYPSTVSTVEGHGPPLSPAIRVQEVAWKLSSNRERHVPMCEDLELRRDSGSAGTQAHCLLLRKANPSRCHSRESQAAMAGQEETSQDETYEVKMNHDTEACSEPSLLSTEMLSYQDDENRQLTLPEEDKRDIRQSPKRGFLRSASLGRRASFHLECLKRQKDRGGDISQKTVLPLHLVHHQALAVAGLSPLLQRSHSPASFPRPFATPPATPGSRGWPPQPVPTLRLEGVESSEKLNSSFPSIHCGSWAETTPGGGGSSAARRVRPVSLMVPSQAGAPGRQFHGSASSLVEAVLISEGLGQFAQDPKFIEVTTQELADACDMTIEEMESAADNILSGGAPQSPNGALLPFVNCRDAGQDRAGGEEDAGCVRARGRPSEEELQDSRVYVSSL

effect of a mutation on the interaction: decreasing interaction
Substance: Voltage-dependent L-type calcium channel subunit beta-2 (Rattus norvegicus (Rat)), Q8VGC3-2 M245A
